From PMC9198273

How the values were obtained:
[1] = molecular target: CXCR3-A C-terminally fused with SmBiT (human) (UniProt P49682)
[2] = molecular target: CXCR3-B C-terminally fused with SmBiT (human) (UniProt P49682)
untagged CXCR3-A (human) = untagged CXCR3-A (human) (UniProt P49682)
[3] = molecular target: CXCR3-A C-terminally fused with SmBiT (human) (UniProt P49682); remark: listed apart in the source
[4] = molecular target: CXCR3-B -40, C-terminally fused with SmBiT (human) (UniProt P49682)
[5] = molecular target: CXCR3-B C-terminally fused with SmBiT (human) (UniProt P49682); remark: listed apart in the source
[6] = molecular target: CXCR3-B -30, C-terminally fused with SmBiT (human) (UniProt P49682)

CXCL10 (from UniProt P02778 22-98) (ligand)
Table 1: miniGi recruitment to CXCR3-A, EC50 of the chemokine (NanoBiT-based assay) [1]: 18.2 nM
Table 1: miniGq recruitment to CXCR3-A, EC50 of the chemokine (NanoBiT-based assay) [1]: 22.2 nM
Table 1: β-arrestin-1 recruitment to CXCR3-A, EC50 of the chemokine (NanoBiT-based assay) [1]: 17.8 nM
Table 1: β-arrestin-2 recruitment to CXCR3-A, EC50 of the chemokine (NanoBiT-based assay) [1]: 2.9 nM
Table 2: β-arrestin-1 recruitment to CXCR3-A, EC50 of the chemokine (NanoBiT-based assay, HEK293T) [1]: 10.7 nM
Table 1: β-arrestin-2 recruitment to CXCR3-B, EC50 of the chemokine (NanoBiT-based assay) [2]: 59.2 nM
Table 1: Gi2 dissociation in CXCR3-A-expressing cells, EC50 of the chemokine (NanoBRET G protein activity sensor) (untagged CXCR3-A (human)): 0.9 nM
Table 1: Go1 dissociation in CXCR3-A-expressing cells, EC50 of the chemokine (NanoBRET G protein activity sensor) (untagged CXCR3-A (human)): 1.9 nM
Table 1: Gq dissociation in CXCR3-A-expressing cells, EC50 of the chemokine (NanoBRET G protein activity sensor) (untagged CXCR3-A (human)): 2.3 nM
Table 1: cAMP, EC50 of the chemokine for the reduction of intracellular cAMP in CXCR3-A-expressing cells (GloSensor) (untagged CXCR3-A (human)): 14.1 nM

B1: CXCL11 (ligand)
chain: FPMFKRGRCLCIGPGVKAVKVADIEKASIMYPSNNCDKIEVIITLKENKGQRCLNPKSKQARLIIKKVERKNF
Table 3: miniGi recruitment to CXCR3-A, EC50 of CXCL11 (NanoBiT-based assay, HEK293T) [3]: 18.2 nM
Table 3: β-arrestin-1 recruitment to CXCR3-A, EC50 of CXCL11 (NanoBiT-based assay) [3]: 6.7 nM
Table 3: miniGi recruitment to CXCR3-B -40, EC50 of CXCL11 (NanoBiT-based assay, HEK293T) [4]: 32.7 nM
Table 3: β-arrestin-1 recruitment to CXCR3-B, EC50 of CXCL11 (NanoBiT-based assay) [5]: 23.9 nM
Table 3: miniGi recruitment to CXCR3-B -30, EC50 of CXCL11 (NanoBiT-based assay, HEK293T) [6]: 27.2 nM
Table 1: miniGi recruitment to CXCR3-A, EC50 of the chemokine (NanoBiT-based assay) [1]: 12.4 nM
Table 1: miniGq recruitment to CXCR3-A, EC50 of the chemokine (NanoBiT-based assay) [1]: 25.9 nM
Table 1: β-arrestin-1 recruitment to CXCR3-A, EC50 of the chemokine (NanoBiT-based assay) [1]: 15.8 nM
Table 1: β-arrestin-2 recruitment to CXCR3-A, EC50 of the chemokine (NanoBiT-based assay) [1]: 2.9 nM
Table 2: β-arrestin-1 recruitment to CXCR3-A, EC50 of the chemokine (NanoBiT-based assay, HEK293T) [1]: 9.6 nM
Table 1: β-arrestin-1 recruitment to CXCR3-B, EC50 of the chemokine (NanoBiT-based assay) [2]: 49.4 nM
Table 1: β-arrestin-2 recruitment to CXCR3-B, EC50 of the chemokine (NanoBiT-based assay) [2]: 12.4 nM
Table 2: β-arrestin-1 recruitment to CXCR3-B, EC50 of the chemokine (NanoBiT-based assay, HEK293T) [2]: 51.6 nM
Table 1: Gi2 dissociation in CXCR3-A-expressing cells, EC50 of the chemokine (NanoBRET G protein activity sensor) (untagged CXCR3-A (human)): 1.2 nM
Table 1: Go1 dissociation in CXCR3-A-expressing cells, EC50 of the chemokine (NanoBRET G protein activity sensor) (untagged CXCR3-A (human)): 1.8 nM
Table 1: Gq dissociation in CXCR3-A-expressing cells, EC50 of the chemokine (NanoBRET G protein activity sensor) (untagged CXCR3-A (human)): 0.4 nM
Table 1: cAMP, EC50 of the chemokine for the reduction of intracellular cAMP in CXCR3-A-expressing cells (GloSensor) (untagged CXCR3-A (human)): 6.3 nM

B2: CXCL11P2G (ligand)
chain: FGMFKRGRCLCIGPGVKAVKVADIEKASIMYPSNNCDKIEVIITLKENKGQRCLNPKSKQARLIIKKVERKNF
Table 2: β-arrestin-1 recruitment to CXCR3-A, EC50 of the chemokine (NanoBiT-based assay, HEK293T) [1]: 14.8 nM
Table 2: β-arrestin-1 recruitment to CXCR3-B, EC50 of the chemokine (NanoBiT-based assay, HEK293T) [2]: 153 nM

B3: CXCL9 (ligand)
chain: TPVVRKGRCSCISTNQGTIHLQSLKDLKQFAPSPSCEKIEIIATLKNGVQTCLNPDSADVKELIKKWEKQVSQKKKQKNGKKHQKKKVLKVRKSQRSRQKKTT
Table 1: β-arrestin-2 recruitment to CXCR3-A, EC50 of the chemokine (NanoBiT-based assay) [1]: 16000 nM
Table 1: β-arrestin-2 recruitment to CXCR3-B, EC50 of the chemokine (NanoBiT-based assay) [2]: 100000 nM
Table 1: Gi2 dissociation in CXCR3-A-expressing cells, EC50 of the chemokine (NanoBRET G protein activity sensor) (untagged CXCR3-A (human)): 19.9 nM
Table 1: Go1 dissociation in CXCR3-A-expressing cells, EC50 of the chemokine (NanoBRET G protein activity sensor) (untagged CXCR3-A (human)): 77.8 nM
Table 1: Gq dissociation in CXCR3-A-expressing cells, EC50 of the chemokine (NanoBRET G protein activity sensor) (untagged CXCR3-A (human)): 56 nM
Table 1: cAMP, EC50 of the chemokine for the reduction of intracellular cAMP in CXCR3-A-expressing cells (GloSensor) (untagged CXCR3-A (human)): 21.9 nM
